Assay results reported in patent publication US20200317768A1 (published 2020).
Changes are numbered by the printed parent chain.

T1: human FcγRIIaR extracellular domain, C-terminal His-tag (human, UniProt P12318 34-217)
T1 construct: also called human FcγRIIa (type R); FcgRIIaR
T1 chain: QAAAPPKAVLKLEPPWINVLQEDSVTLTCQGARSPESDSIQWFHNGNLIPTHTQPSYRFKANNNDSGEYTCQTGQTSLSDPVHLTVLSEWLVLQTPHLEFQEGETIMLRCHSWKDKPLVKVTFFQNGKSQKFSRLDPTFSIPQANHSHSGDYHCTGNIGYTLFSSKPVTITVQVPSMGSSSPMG

T2: human FcγRIIaH extracellular domain, C-terminal His-tag (human, UniProt P12318 34-217)
T2 construct: also called human FcγRIIa (type H); FcgRIIaH
T2 sequence: T1 chain with R134H

T3: cynomolgus monkey FcγRIIa1 extracellular domain, C-terminal His-tag (cynomolgus monkey)
T3 construct: also called cyno FcγRIIa1; cynoFcgRIIa1
T3 chain: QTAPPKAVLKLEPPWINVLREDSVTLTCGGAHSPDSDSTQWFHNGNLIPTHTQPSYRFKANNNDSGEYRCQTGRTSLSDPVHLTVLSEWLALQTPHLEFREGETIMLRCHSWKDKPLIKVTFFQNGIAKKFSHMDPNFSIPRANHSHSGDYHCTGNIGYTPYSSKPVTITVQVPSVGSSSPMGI

T4: cynomolgus monkey FcγRIIIaS extracellular domain, C-terminal His-tag (cynomolgus monkey, UniProt Q8SPW2 21-206 at identity 1.00))
T4 construct: also called cyno FcγRIIIaS; cynoFcγRIIIaS
T4 chain: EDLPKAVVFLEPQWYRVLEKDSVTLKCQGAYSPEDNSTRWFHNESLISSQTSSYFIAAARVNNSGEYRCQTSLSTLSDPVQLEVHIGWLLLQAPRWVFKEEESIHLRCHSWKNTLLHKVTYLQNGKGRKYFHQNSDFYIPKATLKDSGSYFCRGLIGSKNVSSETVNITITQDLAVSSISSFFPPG

T5: human FcγRIIb extracellular domain, C-terminal His-tag (human, UniProt P31994 43-217)
T5 construct: also called human FcgRIIb; FcgRIIb
T5 sequence: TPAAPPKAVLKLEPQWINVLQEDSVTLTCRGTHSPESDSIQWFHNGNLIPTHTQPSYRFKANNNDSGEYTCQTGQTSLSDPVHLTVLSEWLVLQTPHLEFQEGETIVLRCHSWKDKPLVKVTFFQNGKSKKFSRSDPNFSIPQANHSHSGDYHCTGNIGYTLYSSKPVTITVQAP

T6: cynomolgus monkey FcγRIIa2 extracellular domain, C-terminal His-tag (cynomolgus monkey)
T6 construct: also called cyno FcγRIIa2; cynoFcgRIIa2
T6 chain: T3 chain with P95T, T121A, I127K, A128S, K130N, D135N, R142Q

T7: cynomolgus monkey FcγRIIa3 extracellular domain, C-terminal His-tag (cynomolgus monkey)
T7 construct: also called cyno FcγRIIa3; cynoFcgRIIa3
T7 chain: T3 chain with P95T, T121A, A128S, H133P, D135N

B1: MS_M103205H795-SG1/M103202L889-SK1 (antibody, human IgG1, kappa)
heavy: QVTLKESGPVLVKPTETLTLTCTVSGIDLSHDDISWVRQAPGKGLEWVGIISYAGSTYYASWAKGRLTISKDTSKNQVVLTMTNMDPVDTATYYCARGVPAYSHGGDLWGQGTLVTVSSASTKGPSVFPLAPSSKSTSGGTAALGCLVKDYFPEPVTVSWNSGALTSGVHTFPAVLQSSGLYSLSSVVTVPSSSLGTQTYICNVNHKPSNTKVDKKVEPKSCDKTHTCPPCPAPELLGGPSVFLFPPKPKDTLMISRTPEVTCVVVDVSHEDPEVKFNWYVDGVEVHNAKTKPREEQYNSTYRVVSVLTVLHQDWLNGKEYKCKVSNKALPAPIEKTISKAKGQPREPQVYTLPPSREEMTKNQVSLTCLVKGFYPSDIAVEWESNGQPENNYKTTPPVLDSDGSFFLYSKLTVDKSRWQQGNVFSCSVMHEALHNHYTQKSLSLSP
light: DIVMTQSPATLSLSPGERATLSCTSSQSVYHANWLSWFQQKPGQPPKLLIYWASTLAYGVPSRFSGSGSGTDFTLTISSLQPEDAATYYCAGGYGGGRYAFGQGTKVEIKRTVAAPSVFIFPPSDEQLKSGTASVVCLLNNFYPREAKVQWKVDNALQSGNSQESVTEQDSKDSTYSLSSTLTLSKADYEKHKVYACEVTHQGLSSPVTKSFNRGEC
notes: Parent of the Fc variants; also called MS1032LO06-SG1
B2: M103205H795-MY047/M103202L889-SK1 (antibody, human IgG1, kappa)
heavy: not shown
light: B1 light
notes: Substitutions introduced into M103205H795-SG1; expressed with M103202L889-SK1 as light chain
B3: M103205H795-MY001/M103202L889-SK1 (antibody, human IgG1, kappa)
heavy: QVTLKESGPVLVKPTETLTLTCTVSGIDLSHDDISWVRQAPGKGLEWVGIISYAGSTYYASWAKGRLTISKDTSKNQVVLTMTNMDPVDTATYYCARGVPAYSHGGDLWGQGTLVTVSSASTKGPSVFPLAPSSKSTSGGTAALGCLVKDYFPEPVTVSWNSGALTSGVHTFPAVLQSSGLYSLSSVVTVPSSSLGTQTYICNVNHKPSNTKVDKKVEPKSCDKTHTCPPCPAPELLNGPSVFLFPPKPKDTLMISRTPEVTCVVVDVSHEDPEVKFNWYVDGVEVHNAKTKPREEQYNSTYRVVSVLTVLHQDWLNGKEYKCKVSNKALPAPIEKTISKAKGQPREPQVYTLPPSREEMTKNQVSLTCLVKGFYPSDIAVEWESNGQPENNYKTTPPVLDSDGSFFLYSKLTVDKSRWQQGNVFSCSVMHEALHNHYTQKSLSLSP
light: B1 light
notes: as for B2
B4: M103205H795-MY048/M103202L889-SK1 (antibody, human IgG1, kappa)
heavy: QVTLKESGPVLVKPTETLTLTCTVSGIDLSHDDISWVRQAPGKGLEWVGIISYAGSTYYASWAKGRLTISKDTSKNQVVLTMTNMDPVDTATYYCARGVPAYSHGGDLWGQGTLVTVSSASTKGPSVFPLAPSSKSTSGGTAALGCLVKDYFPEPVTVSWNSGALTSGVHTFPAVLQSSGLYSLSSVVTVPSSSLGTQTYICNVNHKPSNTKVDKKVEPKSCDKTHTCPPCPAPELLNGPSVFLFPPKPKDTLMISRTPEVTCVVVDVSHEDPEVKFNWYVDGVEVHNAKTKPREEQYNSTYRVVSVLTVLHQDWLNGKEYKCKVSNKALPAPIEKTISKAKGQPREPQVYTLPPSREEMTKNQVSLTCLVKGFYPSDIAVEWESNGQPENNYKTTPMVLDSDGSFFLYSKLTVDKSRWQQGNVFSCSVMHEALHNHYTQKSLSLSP
light: B1 light
notes: as for B2
B5: M103205H795-MY051/M103202L889-SK1 (antibody, human IgG1, kappa)
heavy: QVTLKESGPVLVKPTETLTLTCTVSGIDLSHDDISWVRQAPGKGLEWVGIISYAGSTYYASWAKGRLTISKDTSKNQVVLTMTNMDPVDTATYYCARGVPAYSHGGDLWGQGTLVTVSSASTKGPSVFPLAPSSKSTSGGTAALGCLVKDYFPEPVTVSWNSGALTSGVHTFPAVLQSSGLYSLSSVVTVPSSSLGTQTYICNVNHKPSNTKVDKKVEPKSCDKTHTCPPCPAPELLNGPSVFLFPPKPKDTLMISRTPEVTCVVVDVSEEDGEVKFNWYVDGVEVHNAKTKPREEQYNSTYRVVSVLTVLHQDWLNGKEYKCKVSNKALPAPIEKTISKAKGQPREPQVYTLPPSREEMTKNQVSLTCLVKGFYPSDIAVEWESNGQPENNYKTTPPVLDSDGSFFLYSKLTVDKSRWQQGNVFSCSVMHEALHNHYTQKSLSLSP
light: B1 light
notes: as for B2
B6: M103205H795-MY049/M103202L889-SK1 (antibody, human IgG1, kappa)
heavy: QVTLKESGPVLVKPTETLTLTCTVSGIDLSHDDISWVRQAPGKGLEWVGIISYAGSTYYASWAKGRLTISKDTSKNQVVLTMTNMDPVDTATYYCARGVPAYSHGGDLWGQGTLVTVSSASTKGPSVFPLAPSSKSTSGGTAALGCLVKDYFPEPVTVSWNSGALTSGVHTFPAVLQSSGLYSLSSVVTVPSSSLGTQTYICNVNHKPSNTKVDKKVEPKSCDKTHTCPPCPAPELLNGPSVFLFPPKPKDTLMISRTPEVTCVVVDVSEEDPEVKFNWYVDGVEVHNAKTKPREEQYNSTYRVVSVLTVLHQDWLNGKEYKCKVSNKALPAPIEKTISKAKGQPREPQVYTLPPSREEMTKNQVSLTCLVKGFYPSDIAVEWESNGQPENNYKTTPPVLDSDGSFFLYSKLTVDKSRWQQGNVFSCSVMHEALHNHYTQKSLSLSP
light: B1 light
notes: as for B2
B7: M103205H795-MY052/M103202L889-SK1 (antibody, human IgG1, kappa)
heavy: B5 heavy with G273P, P398M
light: B1 light
notes: as for B2
B8: M103205H795-MY050/M103202L889-SK1 (antibody, human IgG1, kappa)
heavy: B5 heavy with S269A, G273P
light: B1 light
notes: as for B2

Target: T1, human FcγRIIaR extracellular domain, …
Test: SPR (Biacore), antibody captured, FcgR analyte

Kd | Binder
1.1 µM | B1
0.088 µM | B2
8.2 µM | B3
3.1 µM | B4
2.8 µM | B5
78 µM | B6
14 µM | B7
1.5 µM | B8

target: T2, human FcγRIIaH extracellular domain, …; test: SPR (Biacore), antibody captured, FcgR analyte

Kd | Binder
0.69 µM | B1
2.8 µM | B2
0.032 µM | B3
1.1 µM | B4
22 µM | B5
1.8 µM | B6
0.63 µM | B7
2.1 µM | B8

Target: T3, cynomolgus monkey FcγRIIa1 …
Test: SPR (Biacore), antibody captured, FcgR analyte

Kd | Binder
3.2 µM | B1
4.8 µM | B2
29 µM | B3
14 µM | B4
4.6 µM | B5
2.7 µM | B6
1.4 µM | B7
4.3 µM | B8

Target: T4, cynomolgus monkey FcγRIIIaS …
Test: SPR (Biacore), antibody captured, FcgR analyte

Kd | Binder
0.36 µM | B1
7.8 µM | B2
1.2 µM | B3
0.054 µM | B4
2.1 µM | B5
4.6 µM | B6
1.5 µM | B7
1.7 µM | B8

target: T5, human FcγRIIb extracellular domain, …; test: SPR (Biacore), antibody captured, FcgR analyte

Kd | Binder
4.6 µM | B1
3.7 µM | B2
7.7 µM | B3
3.3 µM | B4
2 µM | B5
1.5 µM | B6
0.72 µM | B7
0.75 µM | B8

Target: T6, cynomolgus monkey FcγRIIa2 …
Test: SPR (Biacore), antibody captured, FcgR analyte

Kd | Binder
5.1 µM | B1
3.4 µM | B2
3.6 µM | B3
1.7 µM | B4
4.8 µM | B5
2.3 µM | B6
1.5 µM | B7
4.2 µM | B8

target: T8, human FcγRIIIaV extracellular domain, C-terminal His-tag (human, UniProt P08637 17-208); test: SPR (Biacore), antibody captured, FcgR analyte
T8 construct: also called human FcgRIIIaV; FcgRIIIaV
T8 sequence (P08637 17-208 F176V): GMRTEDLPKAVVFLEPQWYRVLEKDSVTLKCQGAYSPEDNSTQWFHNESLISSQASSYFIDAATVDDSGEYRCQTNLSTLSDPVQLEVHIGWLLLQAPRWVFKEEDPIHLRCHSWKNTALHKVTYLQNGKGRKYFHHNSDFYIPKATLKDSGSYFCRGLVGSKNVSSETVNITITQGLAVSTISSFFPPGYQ

Kd | Binder
0.81 µM | B1
7.7 µM | B2
18 µM | B3
12 µM | B4
74 µM | B5
7.8 µM | B6
4.6 µM | B7
3.3 µM | B8

Target: T7, cynomolgus monkey FcγRIIa3 …
Test: SPR (Biacore), antibody captured, FcgR analyte

Kd | Binder
17 µM | B1
24 µM | B2
15 µM | B3
70 µM | B4
18 µM | B5
6.6 µM | B6
3.9 µM | B7
19 µM | B8

Target: T4, cynomolgus monkey FcγRIIIaS …
Test: SPR (Biacore); KD of SG1 / KD of variant;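 note: relative to parent M103205H795-SG1 carrying the SG1 human heavy chain constant region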

KD fold (SG1 = 1) | Binder
1 fold | B1
0.05 fold | B2
0.05 fold | B3
0.07 fold | B4
0.17 fold | B5
0.08 fold | B6
0.14 fold | B7
0.21 fold | B8

target: T8, human FcγRIIIaV extracellular domain, …; test: SPR (Biacore); KD of SG1 / KD of variant;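 note: relative to parent M103205H795-SG1 carrying the SG1 human heavy chain constant region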

KD fold (SG1 = 1) | Binder
1 fold | B1
0.04 fold | B3
0.07 fold | B4
0.11 fold | B5
0.1 fold | B6
0.18 fold | B7
0.25 fold | B8
